{"source": "patent US20220354929A1", "about": "“PEPTIDES AND USES THEREOF” (LATERAL IP PTY LTD, priority 2019, published 2022)", "key": {"dorsal horn neurones": {"system": "dorsal horn neurones", "test": "whole-cell patch clamp recording in spinal cord slices from Chung models of neuropathic pain: membrane properties of dorsal horn neurones", "type": "cell-based, rat", "conditions": "for ΔVm, change in membrane potential: prolactin 500 nM vs rest", "description": "(§1) An in vitro spinal cord slice with intact dorsal root afferents combined with single-cell whole-cell patch clamp electrophysiological recording techniques was used to assess the electrophysiological properties of the peptides having the amino acid sequence of SEQ ID NO:2, 3, 4 and 5.\nThe spinal nerve ligation model (Chung model) was first reported by Kim and Chung (1992; Pain, 50(3):355-63) and involves a single tight ligation of the L5 spinal nerve. […] This model has been used as a “gold standard” model for assessing the efficacy of novel compounds targeting neuropathic pain.\nAdult male Sprague-Dawley rats, 8-9 weeks old, weighing 220-250 g at the time of surgery, were purchased from Charles River UK Ltd. The animals were housed in groups of 4 in an air-conditioned room on a 12-hour light/dark cycle. Food and water were available ad libitum. They were allowed to acclimatise to the experimental environment for three days by leaving them on a raised metal mesh for at least 40 min. The baseline paw withdrawal threshold (PWT) was examined using a series of graduated von Frey hairs for 3 consecutive days before surgery and re-assessed on the 6th to 8th day after surgery and on the 12th to 14th day after surgery before drug dosing. Each rat was anaesthetized with 5% isoflurane mixed with oxygen (2L per min) followed by an intramuscular (i.m.) injection of ketamine 90 mg/kg plus xylazine 10 mg/kg. The back was shaved and sterilized with povidone-iodine. The animal was placed in a prone position and a para-medial incision was made on the skin covering the L4-6 level. The L5 spinal nerve was carefully isolated and tightly ligated with 6/0 silk suture. The wound was then closed in layers after a complete hemostasis. A single dose of antibiotics (Amoxipen, 15 mg/rat, i.p.) was routinely given for prevention of infection after surgery. The animals were placed in a temperature-controlled recovery chamber until fully awake before being returned to their home cages.\n(§2) Chung model rats, aged 8 to 12 weeks, were housed in an air-conditioned room on a 12 hour light/dark cycle with food and water available ad libitum. The rats were terminally anaesthetized using isofluorane and decapitated. The vertebral column, rib cage and surrounding tissues were rapidly removed and pinned under ice-cold (<4° C.), high sucrose-containing artificial cerebrospinal fluid (aCSF) comprising: 127 mM sucrose, 1.9 mM KCl, 1.2 mM KH2PO4, 0.24 mM CaCl2, 3.9 mM MgCl2, 26 mM NaHCO3, 10 mM D-glucose and 0.5 mM ascorbic acid. A laminectomy was performed and the spinal cord and associated roots gently dissected and teased out of the spinal column and surrounding tissues. Dura and pia mater and ventral roots were subsequently removed with fine forceps and the spinal cord hemisected. Care was taken to ensure dorsal root inputs to the spinal cord were maintained. The hemisected spinal cord-dorsal root preparations were secured to a tissue slicer and spinal cord slices (400 to 450 μm thick) with dorsal roots attached were cut in chilled (<4° C.) high sucrose aCSF using a Leica VT1000s microtome.\n(§3) Slices were transferred to a small beaker containing ice cold aCSF with 127 mM NaCl, 1.9 mM KCl, 1.2 mM KH2PO4, 1.3 mM MgCl2, 2.4 mM CaCl2, 26 mM NaHCO3 and 10 mM D-glucose, and rapidly warmed to 35° C. ±1° C. in a temperature-controlled water bath over a 20 minute period, then subsequently removed and maintained at room temperature (22° C. ±2° C.) prior to electrophysiological recording. Electrophysiological recording was performed in aCSF comprising 127 mM NaCl, 1.9 mM KCl, 1.2 mM KH2PO4, 1.3 mM MgCl2, 2.4 mM CaCl2, 26 mM NaHCO3 and 10 mM D-glucose.\nWhole-cell recordings were performed at 34-35° C. from Lamina I or II neurones in the dorsal horn of the spinal cord slices using Axopatch 1D and/or Multiclamp 700B amplifies and using the “blind” version of the patch-clamp technique. […]"}, "[1]": {"system": "dorsal root afferent-mediated synaptic inputs to dorsal horn neurones", "test": "whole-cell recording in spinal cord slices from Chung models: dorsal root afferent-mediated synaptic inputs (evoked EPSPs/IPSPs)", "type": "cell-based, rat", "conditions": "for effect on dorsal root-evoked IPSPs (in words): prolactin 500 nM, 0.1 Hz and 5 Hz", "description": "as §1, §2, §3\nWhole-cell recordings were performed at 34-35° C. from Lamina I or II neurones in the dorsal horn of the spinal cord slices using Axopatch 1D and/or Multiclamp 700B amplifies and using the “blind” version of the patch-clamp technique.\nPatch pipettes were pulled from thin-walled borosilicate glass with resistances of between 3 and 8 MS2 when filled with intracellular solution (140 mM potassium gluconate, 10 mM KCl, 1 mM EGTA-Na, 10 mM HEPES, 4 mM Na2ATP, 0.3 mM Na-GTP). The peptides of SEQ ID NOs:2, 3, 4 or 5 (LAT7771, LAT7772, LAT7773 or LAT7774) were diluted in the tissue bath at a concentration of 5 μM.\nA concentric bipolar stimulating electrode was placed appropriately either on the dorsal root or dorsal root entry zone to evoke postsynaptic potentials/currents in recorded cells (see FIG. 1). […] EPSPs/EPSCs were confirmed as monosynaptic on the basis of being characterised by a constant latency and rise-time with few failures.\nRecordings were monitored on an oscilloscope and stored on digital audio tapes for later off-line analysis. In addition, data were low-pass filtered at 2-5 kHz, (1 kHz for voltage-clamp data), digitized at 2-10 kHz and stored on a PC running pCLAMP 10 data acquisition software (Axon Instruments). Analysis of electrophysiological data was carried out using Clampfit 10 software."}, "[2]": {"conditions": "peptide 5 μM, responding neurones"}, "[3]": {"conditions": "prolactin 500 nM, control = 100"}}, "note": "“And” between values parts separate entries of the source, which are not always exact repeats. Equal entries are not always repeated. “Also recorded” adds a separate entry of the source."}
{"molecule": "CRIIHNNNCG [LAT7772]", "values": [{"measurement": "effect on membrane potential / postsynaptic membrane properties (in words)", "setting": "dorsal horn neurones; peptide 5 μM", "result": "overall had little effect on membrane potential; also recorded: small membrane depolarisation in 2 neurones; also recorded: both membrane depolarisations and hyperpolarisations; also recorded: hyperpolarisation"}, {"measurement": "effect on neuronal input resistance (in words)", "setting": "dorsal horn neurones; peptide 5 μM", "result": "decrease in neuronal input resistance in all 5 neurones; also recorded: significant decrease in neuronal input resistance; also recorded: reduction in neuronal input resistance"}, {"measurement": "neuronal input resistance, of control", "setting": "dorsal horn neurones; peptide 5 μM", "result": "60.1±12.3 % of control"}, {"measurement": "change in neuronal input resistance", "setting": "dorsal horn neurones; peptide 5 μM vs control", "result": "149.1±81.7", "unit": "MS2"}, {"measurement": "ΔIR, change in neuronal input resistance", "setting": "dorsal horn neurones; peptide 5 μM vs control, table prints control minus drug, text the magnitude", "result": 149.1, "unit": "MΩ"}, {"measurement": "Input Resistance, mean in presence of peptide", "setting": "dorsal horn neurones; peptide 5 μM, all cells", "result": 172.3, "unit": "MΩ"}, {"measurement": "neuronal input resistance in the presence of peptide", "setting": "dorsal horn neurones; peptide 5 μM, all cells", "result": "172.3±33.2", "unit": "MS2"}, {"measurement": "Membrane Potential, mean in presence of peptide", "setting": "dorsal horn neurones; peptide 5 μM, all cells, ipsilateral to injury", "result": "−58.7±4.8 mV and −58.7 mV"}, {"measurement": "Normalised Input Resistance, mean in presence of peptide", "setting": "dorsal horn neurones; peptide 5 μM, control = 100", "result": 60.1}, {"measurement": "Normalised Input Resistance, ΔIR", "setting": "dorsal horn neurones; peptide 5 μM, control = 100", "result": 39.9}, {"measurement": "reversal potential of peptide-induced response (intersection of VI relations)", "setting": "dorsal horn neurones; peptide 5 μM, individual neurones", "result": "around −78 mV and ~−55 mV and −100 mV and −60 mV and around −60 mV"}, {"measurement": "membrane depolarisation in individual neurones", "setting": "dorsal horn neurones; [2]", "result": 12.7, "unit": "mV"}, {"measurement": "membrane hyperpolarisation in individual neurones", "setting": "dorsal horn neurones; [2]", "result": "3.5 mV and 9.9 mV"}, {"measurement": "Normalised Membrane Potential, mean in presence of peptide", "setting": "dorsal horn neurones; peptide 5 μM, rest = 100", "result": 98.6}, {"measurement": "Normalised Membrane Potential, ΔVm", "setting": "dorsal horn neurones; peptide 5 μM, rest = 100", "result": 1.4}, {"measurement": "effect on dorsal root-evoked EPSPs / excitatory synaptic transmission (in words)", "setting": "[1]; peptide 5 μM, dorsal root stimulation 0.1 Hz", "result": "suppressed dorsal root-evoked excitatory posts-synaptic potentials (EPSPs) in all neurones tested; also recorded: suppressive effect on EPSPs; also recorded: suppressed dorsal root afferent-mediated excitatory synaptic transmission"}]}
{"molecule": "Prolactin: native prolactin peptide (e.g., human prolactin of SEQ ID NO:30); parent prolactin protein (protein) MNIKGSPWKGSLLLLLVSNLLLCQSVAPLPICPGGAARCQVTLRDLFDRAVVLSHYIHNLSSEMFSEFDKRYTHGRGFITKAINSCHTSSLATPEDKEQAQQMNQKDFLSLIVSILRSWNEPLYHLVTEVRGMQEAPEAILSKAVEIEEQTKRLLEGMELIVSQVHPETKENEIYPVWSGLPSLQMADEESRLSAYYNLLHCLRRDSHKIDNYLKLLKCRIIHNNNC", "values": [{"measurement": "Input Resistance, mean in presence of prolactin", "setting": "dorsal horn neurones; prolactin 500 nM", "result": 637.3, "unit": "MΩ"}, {"measurement": "effect on membrane potential (in words)", "setting": "dorsal horn neurones; prolactin 500 nM", "result": "principally induced membrane depolarisation"}, {"measurement": "effect on neuronal input resistance (in words)", "setting": "dorsal horn neurones; prolactin 500 nM", "result": "increase in neuronal input resistance"}, {"measurement": "neuronal input resistance in the presence of prolactin", "setting": "dorsal horn neurones; prolactin 500 nM", "result": "637.3±301.1", "unit": "MS2"}, {"measurement": "increase in neuronal input resistance", "setting": "dorsal horn neurones; prolactin 500 nM vs control", "result": "79.0±60.5", "unit": "MS2"}, {"measurement": "ΔIR, change in neuronal input resistance", "setting": "dorsal horn neurones; prolactin 500 nM vs control", "result": "−79.0", "unit": "MΩ"}, {"measurement": "ΔVm, change in membrane potential", "setting": "dorsal horn neurones", "result": "−2.8", "unit": "mV"}, {"measurement": "ΔVm, change in membrane potential", "setting": "dorsal horn neurones; listed as prolactin", "result": "2.8±2.0", "unit": "mV"}, {"measurement": "Membrane Potential, mean in presence of prolactin", "setting": "dorsal horn neurones; prolactin 500 nM, all cells", "result": "−52.0", "unit": "mV"}, {"measurement": "Membrane Potential, mean in presence of prolactin", "setting": "dorsal horn neurones; prolactin 500 nM, all cells, listed as prolactin", "result": "−52.0±8.4", "unit": "mV"}, {"measurement": "Normalised Input Resistance, mean in presence of prolactin", "setting": "dorsal horn neurones; [3]", "result": 113.9}, {"measurement": "Normalised Input Resistance, ΔIR", "setting": "dorsal horn neurones; [3]", "result": "−13.9"}, {"measurement": "effect on membrane potential (in words)", "setting": "dorsal horn neurones; prolactin 500 nM, listed as prolactin", "result": "small membrane depolarisation in 2 neurones; also recorded: little effect on a further dorsal horn neurone; also recorded: marginal membrane depolarisation"}, {"measurement": "reversal potential of prolactin-induced depolarisation (VI relations)", "setting": "dorsal horn neurones; prolactin 500 nM, one cell", "result": "around −90 mV"}, {"measurement": "Normalised Membrane Potential, mean in presence of prolactin", "setting": "dorsal horn neurones; prolactin 500 nM, rest = 100", "result": 95.8}, {"measurement": "Normalised Membrane Potential, ΔVm", "setting": "dorsal horn neurones; prolactin 500 nM, rest = 100", "result": 4.2}, {"measurement": "effect on dorsal root-evoked IPSPs (in words)", "setting": "[1]", "result": "no effect on IPSPs evoked by dorsal root stimulation in one cell"}, {"measurement": "effect on dorsal root-evoked IPSPs (in words)", "setting": "[1]; listed as prolactin", "result": "little effect on dorsal root stimulated inhibitory post-synaptic potentials (IPSPs)"}]}
